According to PMC10107573 (Nature Communications, 2023):

Molecular target: recombinant biotinylated SARS-CoV-2 spike RBD, wild type (SARS-CoV-2, UniProt P0DTC2, biotinylated)
Test: BLI
Settings: both partners purified

B1: monoclonal antibody 10-5B (human IgG1) (antibody, V domains shown)
VH: EVQLVESGGGLIQPGGSLRLSCAVSGFTVSRMSWVRQAPGKGLECVSVIYTGGNTDYADSVKGRFTISRDNSKNTLYLQMNSLRAEDTALYYCVRGSGGIHDAFDIWGQGTMVTVSS
VL: DIQMTQSPSSVSASVGDRVTITCRASQGISTWLAWYQQKPGKAPKVLINAASGLQSGVPSRFSGSGSGTDFTLTISSLQPEDFATYYCQQAHSFPPTFGPGTKLEIK
B1: binds.

B2: monoclonal antibody 1-1D (human IgG1) (antibody, V domains shown)
VH: EVQLVESGGGLIQPGGSLRLSCAASGFTVSSNYMSWVRQAPGKGLEWVSVIYSGGSTYFADSVKGRFTISRDNSKNTLYLQMNSLRAEDTAVYYCARGELGYSYGMDVWGQGTTVTVSS
VL: QSVLTQPPSVSAAPGQKVTISCSGSSSNIGDNYVSWYQLLPGTAPKLLIYDNNQRPSGIPDRFSGSKSGTSATLGITGLQTGDEADYYCGTWDSSLSTGVFGGGTRLTVL
B2: binds.
